{"source": "paper PMC10233817", "key": {"EWS RRM-RG2-ZnF [1]": {"biological_target": "T1, EWS RRM-RG2-ZnF (UniProt Q01844 361-549)", "assay": "EMSA"}, "EWS RRM-RG2 [2]": {"biological_target": "T2, EWS RRM-RG2 (UniProt Q01844 361-517)", "T2 sequence": "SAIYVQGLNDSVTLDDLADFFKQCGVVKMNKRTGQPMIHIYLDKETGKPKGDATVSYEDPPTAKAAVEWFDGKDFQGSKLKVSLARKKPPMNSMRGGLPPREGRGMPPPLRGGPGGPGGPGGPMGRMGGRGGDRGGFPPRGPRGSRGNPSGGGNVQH", "assay": "EMSA"}, "EWS RRM-RG2 [3]": {"biological_target": "T2, EWS RRM-RG2", "assay": "ITC"}, "EWS RRM-RG2-ZnF [4]": {"biological_target": "T1, EWS RRM-RG2-ZnF", "assay": "ITC"}, "EWS RRM": {"biological_target": "T3, EWS RRM (UniProt Q01844 361-447)", "T3 sequence": "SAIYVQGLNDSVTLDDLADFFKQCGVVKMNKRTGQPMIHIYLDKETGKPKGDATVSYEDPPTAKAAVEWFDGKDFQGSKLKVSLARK", "assay": "ITC"}, "EWS RRM-RG2-ZnF [5]": {"biological_target": "T1, EWS RRM-RG2-ZnF", "assay": "EMSA", "remark": "listed apart in the source"}, "EWS RRM-RG2 [6]": {"biological_target": "T2, EWS RRM-RG2", "assay": "EMSA", "remark": "listed apart in the source"}}, "note": "Read-outs that look alike come from different tables or passages of the source."}
{"binder": "RNA:DNA hybrid (DNA:RNA) RNA: GCAGCUGGCACGACAGGUAUGAAUC DNA: GATTCATACCTGTCGTGCCAGCTGC", "values": [{"measurement": "binding result", "setting": "EWS RRM-RG2-ZnF [1]", "value": "binds"}, {"measurement": "binding result", "setting": "EWS RRM-RG2 [2]", "value": "binds"}]}
{"binder": "TAAGGGAGGGCGGGAGGGAA (structured_DNA)", "note": "[pu20m2 DNA G4]", "values": [{"measurement": "Kd", "setting": "EWS RRM-RG2 [3]", "value": "3.28 ± 0.5", "unit": "µM"}, {"measurement": "Kd", "setting": "EWS RRM-RG2-ZnF [4]", "value": "3.96 ± 0.7", "unit": "µM"}, {"measurement": "Kd", "setting": "EWS RRM", "value": "22.3 ± 6.8", "unit": "µM"}]}
{"binder": "GGAUCUUUAACUACUCAAGAUACUGAACAUGACAUGGUA (structured_RNA)", "note": "[SON-GGU]", "values": [{"measurement": "binding result", "setting": "EWS RRM-RG2-ZnF [5]", "value": "binds"}, {"measurement": "binding result", "setting": "EWS RRM-RG2 [6]", "value": "binds"}]}
